Tests used:
[1] = biological target: T1, PD-1 on PD-1-overexpressing CHO/PD-1 cells (GenScript, Cat. No. M00529) (UniProt Q15116 25-288, limits assumed); assay: flow cytometry, association of PKH26-stained CHO/PD-1 and CFSE-stained SK-BR-3 cells
T1 construct: whole, on cells

[2] = biological target: T2, Recombinant human PD-1 (Beijing Yiqiao Shenzhou, Cat. No. 10377-H08H) (human, UniProt Q15116 25-167); assay: ELISA, antigen coated at 1 ug/mL
T2 construct: Bought protein coated on the ELISA plate
T2 sequence (Q15116 25-167 limits assumed): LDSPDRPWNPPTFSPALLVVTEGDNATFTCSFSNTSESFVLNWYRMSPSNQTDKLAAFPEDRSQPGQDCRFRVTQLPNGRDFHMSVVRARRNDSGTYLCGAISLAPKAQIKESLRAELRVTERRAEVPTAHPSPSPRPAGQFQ
Protocol: The coating was performed at 4° C. overnight. […] Color development was terminated by adding 100 μL/well of 1 M H₂SO₄. The absorbance at 450 nm was read on a microplate reader.

T1 sequence (Q15116 25-288 limits assumed, one chain of several): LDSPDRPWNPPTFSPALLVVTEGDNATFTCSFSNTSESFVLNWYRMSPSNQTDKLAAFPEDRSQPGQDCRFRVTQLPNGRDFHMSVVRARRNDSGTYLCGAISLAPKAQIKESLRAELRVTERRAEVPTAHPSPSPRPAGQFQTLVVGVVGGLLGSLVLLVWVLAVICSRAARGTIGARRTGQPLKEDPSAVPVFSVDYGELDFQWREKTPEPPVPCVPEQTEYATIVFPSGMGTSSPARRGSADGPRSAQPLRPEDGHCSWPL

B1: anti-PD-1pem/anti-HER2 heterodimeric bispecific antibody (bispecific antibody, human IgG1, kappa)
heavy 1: not shown
light 1: EIVLTQSPATLSLSPGERATLSCRASKGVSTSGYSYLHWYQQKPGQAPRLLIYLASYLESGVPARFSGSGSGTDFTLTISSLEPEDFAVYYCQHSRDLPLTFGGGTKVEIKRTVAAPSVFIFPPSDEQLKSGTASVVCLLNNFYPREAKVQWKVDNALQSGNSQESVTEQDSKDSTYSLSSTLTLSKADYEKHKVYACEVTHQGLSSPVTKSFNRGEC
heavy 2: not shown
light 2: not shown
notes: also called PD-1/HER2 heterodimeric antibody; PD-1/HER2 heterodimer
binding result [1]: binds | binding result [2]: binds

— patent US20190367633A1 (BEIJING HANMI PHARMACEUTICAL, published 2019)
